Several values for one entry are separate records, joined by “and”; a condition that tells them apart may be missing. Equal values may be shown once.
How the values were obtained:
[1] = target: T1, soluble human CD3 epsilon chain (human, UniProt P07766 23-126); test: SPR
T1 construct: also called CD3ε

human GPC3 = target: T2, human GPC3 (human, UniProt P51654 25-563); test: SPR
T2 construct: range 25-563; soluble analyte; also called soluble human GPC3; glypican 3
T2 sequence (P51654 25-563 limits assumed): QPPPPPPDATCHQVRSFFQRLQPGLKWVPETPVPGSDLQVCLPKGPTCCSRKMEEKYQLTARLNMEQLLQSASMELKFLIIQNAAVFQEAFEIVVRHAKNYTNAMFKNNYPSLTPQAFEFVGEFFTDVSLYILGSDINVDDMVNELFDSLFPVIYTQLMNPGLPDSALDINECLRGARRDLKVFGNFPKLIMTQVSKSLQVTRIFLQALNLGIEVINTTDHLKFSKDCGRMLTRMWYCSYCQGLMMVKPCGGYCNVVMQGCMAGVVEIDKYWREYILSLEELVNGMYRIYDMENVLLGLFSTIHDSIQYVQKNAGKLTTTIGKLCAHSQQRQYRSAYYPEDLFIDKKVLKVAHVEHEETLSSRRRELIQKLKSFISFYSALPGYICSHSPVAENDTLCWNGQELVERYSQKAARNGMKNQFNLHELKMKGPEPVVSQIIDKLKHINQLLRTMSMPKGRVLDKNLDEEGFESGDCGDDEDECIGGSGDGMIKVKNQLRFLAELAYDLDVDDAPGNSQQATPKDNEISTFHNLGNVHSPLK

T1 sequence (P07766 23-126 limits assumed): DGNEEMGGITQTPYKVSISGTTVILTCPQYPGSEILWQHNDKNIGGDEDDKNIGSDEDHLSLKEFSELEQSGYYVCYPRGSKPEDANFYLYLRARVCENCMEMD

Binder | Kd [1] | Kd (human GPC3) [nM]
TR01H084-E2702GsKsc/none-Hi-E2704sE/L0011-k0 (antibody, human IgG4 S228P, kappa, N297A, V domains shown, one-arm) VH: QVQLVESGGGVVQPGGSLRLSCAASGFTFSNAWMHWVRQAPGKGLEWVAQIKDKSQNYATYYAESVKGRFTISRADSKNSIYLQMNSLKTEDTAVYYCRYVHYAAGYGVDIWGQGTTVTVSS VL: DIVMTQSPLSLPVTPGEPASISCRSSQPLVHSNRNTYLHWYQQKPGQAPRLLIYKVSNRFSGVPDRFSGSGSGTDFTLKISRVEAEDVGVYYCGQGTQVPYTFGQGTKLEIKR | 4.14 nM | –
H0610-G1dh/none-Hi-Kn010G3/L0015-k0 (antibody, V domains shown, one-arm) VH: QVQLVQSGAEVKKPGASVKVSCKASGYTFTDYEMHWIRQPPGQGLEWIGAIDGKTPDTAYSQKFKGRVTLTADKSTSTAYMELSSLTSEDTAVYYCTRFYSYTYWGQGTLVTVSS VL: DIVMTQSPLSLPVTPGEPASISCRSSQSPVHSNRNTYLHWYQQKPGQAPRLLIYKVSNRFSGVPDRFSGSGSGTDFTLKISRVEAEDVGVYYCGQGTQVPYTFGQGTKLEIK | – | 1.31
TR01H067-E22Hh/none-Hi-Kn010G3/TR01L019-k0 (antibody, V domains shown, one-arm) VH: QVQLVESGGGLVQPGRSLRLSCAASGFTFSNAWMHWVRQAPGKGLEWVAQIKDKSQNYATYYAESVKGRFTISRDDSKNSLYLQMNSLKTEDTAVYYCRYVHYAASYGVDAWGQGTTVTVSS VL: DIVMTQSPLSLPVTPGEPASISCQASESPVHSNRNTYLHWYLQKPGQSPQLLIYKVSNRFSGVPDRFSGSGSGTDFTLKISRVEAEDVGVYYCYQGTQVPYTFGQGTKLEIK | 12.1 nM | –
TR01H040-E22Hh/none-Hi-Kn010G3/TR01L019-k0 (antibody, V domains shown, one-arm) VH: QVQLVESGGGLVQPGRSLRLSCAASGFTFSNAWMHWVRQAPGKGLEWVAQIKDKSQNYATYYAESVKGRFTISRADSKNSIYLQMNSLKTEDTAVYYCRYVHYSASYGVDAWGQGTTVTVSS VL: DIVMTQSPLSLPVTPGEPASISCQASESPVHSNRNTYLHWYLQKPGQSPQLLIYKVSNRFSGVPDRFSGSGSGTDFTLKISRVEAEDVGVYYCYQGTQVPYTFGQGTKLEIK | 3.2 nM | –
TR01H040-E22Hh/none-Hi-Kn010G3/TR01L007-k0 (antibody, V domains shown, one-arm) VH: QVQLVESGGGLVQPGRSLRLSCAASGFTFSNAWMHWVRQAPGKGLEWVAQIKDKSQNYATYYAESVKGRFTISRADSKNSIYLQMNSLKTEDTAVYYCRYVHYSASYGVDAWGQGTTVTVSS VL: DIVMTQSPLSLPVTPGEPASISCQASESLVHSNRNTYLHWYLQKPGQSPQLLIYKVSNRFSGVPDRFSGSGSGTDFTLKISRVEAEDVGVYYCGQGTQVPYTFGQGTKLEIK | 68.2 nM | –
GCH054-G1dh/none-Hi-Kn010G3/L0215-k0 (antibody, V domains shown, one-arm) VH: QVQLVQSGAEVKKPGASVTVSCKASGYTFTDYEMHWIRQPPGEGLEWIGAIDGETPDTAYSEKFKGRVTLTADKSTSTAYMELSSLTSEDTAVYYCTRFYSYTYWGQGTLVTVSS VL: DIVMTQSPLSLPVTPGEPASISCRSSQPPVHSNRNTYIHWYQQKPGQAPRLLIYKVSNRFSGVPDRFSGSGSGTDFTLKISRVEAEDVGVYYCGQGTQVPYTFGQGTKLEIK | – | 1.62
GCH054-G1dh/none-Hi-Kn010G3/L0249-k0 (antibody, V domains shown, one-arm) VH: QVQLVQSGAEVKKPGASVTVSCKASGYTFTDYEMHWIRQPPGEGLEWIGAIDGETPDTAYSEKFKGRVTLTADKSTSTAYMELSSLTSEDTAVYYCTRFYSYTYWGQGTLVTVSS VL: DIVMTQSPLSLPVTPGEPASISCRPSQSPVHSNRNTYIQWYQQKPGQAPRLLIYKVSNRFSGVPDRFSGSGSGTDFTLKISRVEAEDVGVYYCSQGTQVPYTFGQGTKLEIK | – | 0.00361
GCH054-G1dh/none-Hi-Kn010G3/L0246-k0 (antibody, V domains shown, one-arm) VH: QVQLVQSGAEVKKPGASVTVSCKASGYTFTDYEMHWIRQPPGEGLEWIGAIDGETPDTAYSEKFKGRVTLTADKSTSTAYMELSSLTSEDTAVYYCTRFYSYTYWGQGTLVTVSS VL: DIVMTQSPLSLPVTPGEPASISCRSSQSPVHSNRNTYIQWYQQKPGQAPRLLIYKVSNRFSGVPDRFSGSGSGTDFTLKISRVEAEDVGVYYCSQGTQVPYTFGQGTKLEIK | – | 0.0315
GCH054-G1dh/none-Hi-Kn010G3/L0200-k0 (antibody, V domains shown, one-arm) VH: QVQLVQSGAEVKKPGASVTVSCKASGYTFTDYEMHWIRQPPGEGLEWIGAIDGETPDTAYSEKFKGRVTLTADKSTSTAYMELSSLTSEDTAVYYCTRFYSYTYWGQGTLVTVSS VL: DIVMTQSPLSLPVTPGEPASISCRPSQSPVHSNRNTYLHWYQQKPGQAPRLLIYKVSNRFSGVPDRFSGSGSGTDFTLKISRVEAEDVGVYYCGQGTQVPYTFGQGTKLEIK | – | 1.18
GPC3_ERY22_CE115 (rCE115H-E22Hh/rCE115L-k0/GL4-E22Hk/H0000-E22L) (bispecific antibody, human IgG1, kappa, L234A L235A, N297A, ERY22 format) heavy: EVQLVETGGSLVQPGKSLKLTCATSGFTFSNAWMHWVRQSPEKQLEWVAQIKAKSNNYATYYAESVKGRFTISRDDSKSNIYLQMNSLKEEDTAVYYCRYVHYGAYYGVDAWGQGTSVTVSSASTKGPSVFPLAPSSKSTSGGTAALGCLVKDYFPEPVTVSWNSGALTSGVHTFPAVLQSSGLYSLSSVVTVPSSSLGTQTYICNVNHKPSNTKVDKKVEPKSCDKTHTCPPCPAPEAAGGPSVFLFPPKPKDTLMISRTPEVTCVVVDVSHEDPEVKFNWYVDGVEVHNAKTKPREEQYASTYRVVSVLTVLHQDWLNGKEYKCKVSNKALPAPIEKTISKAKGQPREPQVYTLPPSRCELTKNQVSLSCAVKGFYPSDIAVEWESNGQPENNYKTTPPVLDSDGSFFLVSKLTVDKSRWQQGNVFSCSVMHEALHNHYTQKSLSLSPDYKDDDDK light: DVVMTQTPVSMSVSLGGQVSISCRSSQSLVHNNGNTYVSWYIQKPSQSPQLLIYKVSNRFSGISDRFSGSGSGTDFTLKISRVEPDDLGVYYCGQGTQDPYTFGAGTKLELKRTVAAPSVFIFPPSDEQLKSGTASVVCLLNNFYPREAKVQWKVDNALQSGNSQESVTEQDSKDSTYSLSSTLTLSKADYEKHKVYACEVTHQGLSSPVTKSFNRGEC chain 1: DIVMTQSPLSLPVTPGEPASISCRSSQSLVHSNRNTYLHWYQQKPGQAPRLLIYKVSNRFSGVPDRFSGSGSGTDFTLKISRVEAEDVGVYYCSQNTHVPPTFGQGTKLEIKSSASTKGPSVFPLAPSSKSTSGGTAALGCLVKDYFPEPVTVSWNSGALTSGVHTFPAVLQSSGLYSLSSVVTVPSSSLGTQTYICNVNHKPSNTKVDKKVEPKSCDKTHTCPPCPAPEAAGGPSVFLFPPKPKDTLMISRTPEVTCVVVDVSHEDPEVKFNWYVDGVEVHNAKTKPREEQYASTYRVVSVLTVLHQDWLNGKEYKCKVSNKALPAPIEKTISKAKGQPREPQVCTLPPSRDELTKNQVSLWCLVKGFYPSDIAVEWESNGQPENNYKTTPPVLDSDGSFFLYSKLTVDKSRWQQGNVFSCSVMHEALHNHYTQKSLSLSPHHHHHHHH chain 2: QVQLVQSGAEVKKPGASVKVSCKASGYTFTDYEMHWIRQPPGQGLEWIGAIDPKTGDTAYSQKFKGRVTLTADKSTSTAYMELSSLTSEDTAVYYCTRFYSYTYWGQGTLVTVSSASVAAPSVFIFPPSDEQLKSGTASVVCLLNNFYPREAKVQWKVDNALQSGNSQESVTEQDSKDSTYSLSSTLTLSKADYEKHKVYACEVTHQGLSSPVTKSFNRGEC | 93.7 nM | –

The remaining lines, values ahead:

Kd [1] | Kd (human GPC3) [nM] | Binder
80 nM | – | rCE115H-E22Hh/none-Hi-Kn010G3/L0000-k0 (antibody, human IgG1, kappa, L234A L235A, N297A, V domains shown, one-arm) VH: EVQLVETGGSLVQPGKSLKLTCATSGFTFSNAWMHWVRQSPEKQLEWVAQIKAKSNNYATYYAESVKGRFTISRDDSKSNIYLQMNSLKEEDTAVYYCRYVHYGAYYGVDAWGQGTSVTVSS VL: DIVMTQSPLSLPVTPGEPASISCRSSQSLVHSNRNTYLHWYQQKPGQAPRLLIYKVSNRFSGVPDRFSGSGSGTDFTLKISRVEAEDVGVYYCGQGTQVPYTFGQGTKLEIKR
124 nM and 138 nM | – | rCE115H-E22Hh/none-Hi-Kn010G3/rCE115L-k0 (antibody, human IgG1, kappa, L234A L235A, N297A, V domains shown, one-arm; also called rCE115H-E22Hh//-Hi-Kn010G3/rCE115L-k0) VH: EVQLVETGGSLVQPGKSLKLTCATSGFTFSNAWMHWVRQSPEKQLEWVAQIKAKSNNYATYYAESVKGRFTISRDDSKSNIYLQMNSLKEEDTAVYYCRYVHYGAYYGVDAWGQGTSVTVSS VL: DVVMTQTPVSMSVSLGGQVSISCRSSQSLVHNNGNTYVSWYIQKPSQSPQLLIYKVSNRFSGISDRFSGSGSGTDFTLKISRVEPDDLGVYYCGQGTQDPYTFGAGTKLELKR
85.2 nM | – | rCE115H-E22Hh/none-Hi-Kn010G3/L0000vk1-k0 (antibody, human IgG1, L234A L235A, N297A, V domains shown, one-arm) VH: EVQLVETGGSLVQPGKSLKLTCATSGFTFSNAWMHWVRQSPEKQLEWVAQIKAKSNNYATYYAESVKGRFTISRDDSKSNIYLQMNSLKEEDTAVYYCRYVHYGAYYGVDAWGQGTSVTVSS VL: DIQMTQSPSSLSASVGDRVTITCRSSQSLVHSNRNTYLHWYQQKPGKAPKLLIYKVSNRFSGVPSRFSGSGSGTDFTFTISSLQPEDIATYYCGQGTQVPYTFGQGTKVEIK
5.14 nM | – | TR01H113-E2702GsKsc/none-Hi-E2704sE/L0011-k0 (antibody, human IgG4 S228P, kappa, N297A, V domains shown, one-arm) VH: QVQLVESGGGVVQPGGSLRLSCAASGFTFSNAWMHWVRQAPGKGLEWVAQIKDKSQNYATYVAESVKGRFTISRADSKNSIYLQMNSLKTEDTAVYYCRYVHYAAGYGVDIWGQGTTVTVSS VL: DIVMTQSPLSLPVTPGEPASISCRSSQPLVHSNRNTYLHWYQQKPGQAPRLLIYKVSNRFSGVPDRFSGSGSGTDFTLKISRVEAEDVGVYYCGQGTQVPYTFGQGTKLEIKR
16.4 nM | – | TR01H109-E2702GsKsc/none-Hi-E2704sE/L0011-k0 (antibody, human IgG4 S228P, kappa, N297A, V domains shown, one-arm) VH: QVQLVESGGGLVQPGRSLRLSCAASGFTFSNAWMHWVRQAPGKGLEWVAQIKDKSQNYATYVAESVKGRFTISRDDSKNSLYLQMNSLKTEDTAVYYCRYVHYAAGYGVDAWGQGTTVTVSS VL: DIVMTQSPLSLPVTPGEPASISCRSSQPLVHSNRNTYLHWYQQKPGQAPRLLIYKVSNRFSGVPDRFSGSGSGTDFTLKISRVEAEDVGVYYCGQGTQVPYTFGQGTKLEIKR
10.1 nM | – | TR01H082-E2702GsKsc/none-Hi-E2704sE/L0011-k0 (antibody, human IgG4 S228P, kappa, N297A, V domains shown, one-arm) VH: QVQLVESGGGLVQPGRSLRLSCAASGFTFSNAWMHWVRQAPGKGLEWVAQIKDKSQNYATYYAESVKGRFTISRDDSKNSLYLQMNSLKTEDTAVYYCRYVHYAAGYGVDAWGQGTTVTVSS VL: DIVMTQSPLSLPVTPGEPASISCRSSQPLVHSNRNTYLHWYQQKPGQAPRLLIYKVSNRFSGVPDRFSGSGSGTDFTLKISRVEAEDVGVYYCGQGTQVPYTFGQGTKLEIKR
6.12 nM | – | TR01H077-E22Hh/none-Hi-Kn010G3/L0200-k0 (antibody, V domains shown, one-arm) VH: QVQLVESGGGLVQPGRSLRLSCAASGFTFSNAWMHWVRQAPGKGLEWVAQIKDKSNNYATYYAESVKGRFTISRADSKNSIYLQMNSLKTEDTAVYYCRYVHYAAAEMVRDDIWGQGTTVTVSS VL: DIVMTQSPLSLPVTPGEPASISCRPSQSPVHSNRNTYLHWYQQKPGQAPRLLIYKVSNRFSGVPDRFSGSGSGTDFTLKISRVEAEDVGVYYCGQGTQVPYTFGQGTKLEIK
106 nM | – | TR01H082-E22Hh/none-Hi-Kn010G3/TR01L020-k0 (antibody, V domains shown, one-arm) VH: QVQLVESGGGLVQPGRSLRLSCAASGFTFSNAWMHWVRQAPGKGLEWVAQIKDKSQNYATYYAESVKGRFTISRDDSKNSLYLQMNSLKTEDTAVYYCRYVHYAAGYGVDAWGQGTTVTVSS VL: DIVMTQSPLSLPVTPGEPASISCQASESPVHSNRNTYIQWYLQKPGQSPQLLIYKVSNRFSGVPDRFSGSGSGTDFTLKISRVEAEDVGVYYCYQGTQVPYTFGQGTKLEIK
